The target of the data set is T1, Acetyl-Prolyl-Arginyl-Asparaginyl-Lysyl-aminoacetamide coumarin (Ac-PRNK-ACC).
T1 chain: PRNK

B1: bovine factor Xa protease (Promega) (protein)
chain: ANSFLEEVKQGNLERECLEEACSLEEAREVFEDAEQTDEFWSKYKDGDQCEGHPCLNQGHCKDGIGDYTCTCAEGFEGKNCEFSTREICSLDNGGCDQFCREERSEVRCSCAHGYVLGDDSKSCVSTERFPCGKFTQGRSRRWAIHTSEDALDASELEHYDPADLSPTESSLDLLGLNRTEPSAGEDGSQVVRIVGGRDCAEGECPWQALLVNEENEGFCGGTILNEFYVLTAAHCLHQAKRFTVRVGDRNTEQEEGNEMAHEVEMTVKHSRFVKETYDFDIAVLRLKTPIRFRRNVAPACLPEKDWAEATLMTQKTGIVSGFGRTHEKGRLSSTLKMLEVPYVDRSTCKLSSSFTITPNMFCAGYDTQPEDACQGDSGGPHVTRFKDTYFVTGIVSWGEGCARKGKFGVYTKVSNFLKWIDKIMKARAGAAGSRGHSEAPATWTVPPPLPL
In the case of B1, the “cleavage of the fluorogenic substrate (fluorescence, excitation 355 nm, emission 460 nm)” value was “Ac-PRNK-ACC (SEQ. ID. NO: 12) is a specific substrate for tryptase in relation to other blood borne serine proteases”.

Source of the values: patent publication US20020197661.
